Assay results taken from the supplement of paper PMC10567573.

B1: ZNF232 (parent)
chain: FPKSEQVYLHFLSVVTEDGPEPKD

Variants of: B1
Assay: protein stability index of a GFP-peptide fusion (GPS, HEK-293T) (PSI 1-6); higher = more stable
Conditions: c terminus: a fixed tail appended
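Further: lentivirally expressed fusions sorted by FACS into six bins by GFP to DsRed ratio, PSI derived from sequencing read proportions per bin multiplied by bin number.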

Compared with FPKSEPVYLHFLSVVTEDGPEPKD [Q6P], FPKSEIVYLHFLSVVTEDGPEPKD [Q6I] is higher in protein stability index: 1.92 for the first, 2.23 for the second.

Going from FPKSEEVYLHFLSVVTEDGPEPKD [Q6E] to FPKSEYVYLHFLSVVTEDGPEPKD [Q6Y], the protein stability index falls from 2.6 to 1.47.

First: FPKSETVYLHFLSVVTEDGPEPKD [Q6T]
Second: FPKSEFVYLHFLSVVTEDGPEPKD [Q6F]
The protein stability index of the first is higher: 2.37 for the first, 1.9 for the second.

Going from FPKSEKVYLHFLSVVTEDGPEPKD [Q6K] to FPKSENVYLHFLSVVTEDGPEPKD [Q6N], the protein stability index rises from 1.86 to 2.07.

First: FPKSESVYLHFLSVVTEDGPEPKD [Q6S]
Second: FPKSEHVYLHFLSVVTEDGPEPKD [Q6H]
The protein stability index of the first is lower: 1.41 for the first, 1.88 for the second.

Going from FPKSEMVYLHFLSVVTEDGPEPKD [Q6M] to FPKSEDVYLHFLSVVTEDGPEPKD [Q6D], the protein stability index rises from 1.6 to 2.87.

Compared with FPKSEQVYLHFLSVETEDGPEPKD [V15E], FPKSEQVYLHFLSVYTEDGPEPKD [V15Y] is lower in protein stability index: 3.1 for the first, 2.43 for the second.

Going from FPKSEQVYLHFLSVMTEDGPEPKD [V15M] to FPKSEQVYLHFLSVKTEDGPEPKD [V15K], the protein stability index falls from 2.88 to 2.27.

Compared with FPKSEQVYLHFLSVDTEDGPEPKD [V15D], FPKSEQVYLHFLSVHTEDGPEPKD [V15H] is lower in protein stability index: 3.45 for the first, 2.4 for the second.

First: FPKSEQVYLHFLSVITEDGPEPKD [V15I]
Second: FPKSEQVYLHFLSVRTEDGPEPKD [V15R]
The protein stability index of the first is lower: 1.89 for the first, 3.32 for the second.

Going from FPKSEQVYLHFLSVCTEDGPEPKD [V15C] to FPKSEQVYLHFLSVTTEDGPEPKD [V15T], the protein stability index rises from 1.72 to 2.1.

Compared with FPKSEQVYLHFLSVSTEDGPEPKD [V15S], FPKSEQVYLHFLSVFTEDGPEPKD [V15F] is lower in protein stability index: 2.47 for the first, 2.44 for the second.

Going from FPKSEQVYLHFLSVNTEDGPEPKD [V15N] to FPKSEQVYLHFLSVWTEDGPEPKD [V15W], the protein stability index falls from 2.36 to 1.47.

Compared with FPKSEQVYLHFLSVPTEDGPEPKD [V15P], FPKSEQVYLHFLSIVTEDGPEPKD [V14I] is higher in protein stability index: 2.08 for the first, 3.05 for the second.

Going from FPKSEQVYLHFLSQVTEDGPEPKD [V14Q] to FPKSEQVYLHFLSDVTEDGPEPKD [V14D], the protein stability index rises from 2.82 to 3.72.

Compared with FPKSEQVYLHFLSWVTEDGPEPKD [V14W], FPKSEQVYLHFLSMVTEDGPEPKD [V14M] is higher in protein stability index: 1.29 for the first, 2.37 for the second.

Compared with FPKSEQVYLHFLSGVTEDGPEPKD [V14G], FPKSEQVYLHFLSEVTEDGPEPKD [V14E] is higher in protein stability index: 2.68 for the first, 3 for the second.

Going from FPKSEQVYLHFLSTVTEDGPEPKD [V14T] to FPKSEQVYLHFLSRVTEDGPEPKD [V14R], the protein stability index rises from 2.23 to 2.45.

Going from FPKSEQVYLHFLSYVTEDGPEPKD [V14Y] to FPKSEQVYLHFLSKVTEDGPEPKD [V14K], the protein stability index falls from 3.58 to 2.29.

Compared with FPKSEQVYLHFLSLVTEDGPEPKD [V14L], FPKSEQVYLHFLSFVTEDGPEPKD [V14F] is lower in protein stability index: 2.86 for the first, 2.18 for the second.

Compared with FPKSEQVYLHFLSPVTEDGPEPKD [V14P], FPKSEQVYLHFLSHVTEDGPEPKD [V14H] is lower in protein stability index: 3.14 for the first, 2.34 for the second.

First: FPKSEQVYLHFLSSVTEDGPEPKD [V14S]
Second: FPKSEQVYLHFLSCVTEDGPEPKD [V14C]
The protein stability index of the first is higher: 1.97 for the first, 1.92 for the second.

Going from FPKSEQVYLHFLSNVTEDGPEPKD [V14N] to FPKSEQVYLHTLSVVTEDGPEPKD [F11T], the protein stability index falls from 3.09 to 2.27.

First: FPKSEQVYLHELSVVTEDGPEPKD [F11E]
Second: FPKSEQVYLHKLSVVTEDGPEPKD [F11K]
The protein stability index of the first is higher: 4.55 for the first, 3.17 for the second.

Compared with FPKSEQVYLHMLSVVTEDGPEPKD [F11M], FPKSEQVYLHPLSVVTEDGPEPKD [F11P] is higher in protein stability index: 2.06 for the first, 3.74 for the second.

First: FPKSEQVYLHHLSVVTEDGPEPKD [F11H]
Second: FPKSEQVYLHYLSVVTEDGPEPKD [F11Y]
The protein stability index of the first is higher: 2.99 for the first, 2.29 for the second.

Compared with FPKSEQVYLHGLSVVTEDGPEPKD [F11G], FPKSEQVYLHRLSVVTEDGPEPKD [F11R] is lower in protein stability index: 3.61 for the first, 2.83 for the second.

First: FPKSEQVYLHWLSVVTEDGPEPKD [F11W]
Second: FPKSEQVYLHNLSVVTEDGPEPKD [F11N]
The protein stability index of the first is lower: 2.08 for the first, 3.18 for the second.

First: FPKSEQVYLHSLSVVTEDGPEPKD [F11S]
Second: FPKSEQVYLHALSVVTEDGPEPKD [F11A]
The protein stability index of the first is higher: 2.65 for the first, 2.49 for the second.

First: FPKSEQVYLHDLSVVTEDGPEPKD [F11D]
Second: FPKSEQVYLHCLSVVTEDGPEPKD [F11C]
The protein stability index of the first is higher: 3.73 for the first, 1.76 for the second.

Compared with FPKSEQVYLHLLSVVTEDGPEPKD [F11L], FPKSEQFYLHFLSVVTEDGPEPKD [V7F] is lower in protein stability index: 2.41 for the first, 1.68 for the second.

Going from FPKSEQKYLHFLSVVTEDGPEPKD [V7K] to FPKSEQYYLHFLSVVTEDGPEPKD [V7Y], the protein stability index falls from 3.21 to 1.02.

Compared with FPKSEQDYLHFLSVVTEDGPEPKD [V7D], FPKSEQIYLHFLSVVTEDGPEPKD [V7I] is higher in protein stability index: 1.91 for the first, 1.97 for the second.

Going from FPKSEQLYLHFLSVVTEDGPEPKD [V7L] to FPKSEQQYLHFLSVVTEDGPEPKD [V7Q], the protein stability index falls from 2.32 to 1.88.

Compared with FPKSEQNYLHFLSVVTEDGPEPKD [V7N], FPKSEQHYLHFLSVVTEDGPEPKD [V7H] is lower in protein stability index: 2.27 for the first, 1.61 for the second.

First: FPKSEQRYLHFLSVVTEDGPEPKD [V7R]
Second: FPKSEQPYLHFLSVVTEDGPEPKD [V7P]
The protein stability index of the first is lower: 2.49 for the first, 2.97 for the second.

Going from FPKSEQTYLHFLSVVTEDGPEPKD [V7T] to FPKSEQEYLHFLSVVTEDGPEPKD [V7E], the protein stability index rises from 2.1 to 2.8.

Compared with FPKSEQAYLHFLSVVTEDGPEPKD [V7A], FPKSEQMYLHFLSVVTEDGPEPKD [V7M] is higher in protein stability index: 2.2 for the first, 3.74 for the second.

First: FPKSEQSYLHFLSVVTEDGPEPKD [V7S]
Second: FPKSEQCYLHFLSVVTEDGPEPKD [V7C]
The protein stability index of the first is higher: 2.59 for the first, 1.63 for the second.

First: FPKSEQVYLHFLPVVTEDGPEPKD [S13P]
Second: FPKSEQVYLHFLFVVTEDGPEPKD [S13F]
The protein stability index of the first is higher: 2.14 for the first, 1.66 for the second.

Compared with FPKSEQVYLHFLDVVTEDGPEPKD [S13D], FPKSEQVYLHFLLVVTEDGPEPKD [S13L] is lower in protein stability index: 3.54 for the first, 1.76 for the second.

Going from FPKSEQVYLHFLKVVTEDGPEPKD [S13K] to FPKSEQVYLHFLEVVTEDGPEPKD [S13E], the protein stability index rises from 2.48 to 2.98.

Compared with FPKSEQVYLHFLRVVTEDGPEPKD [S13R], FPKSEQVYLHFLHVVTEDGPEPKD [S13H] is lower in protein stability index: 1.98 for the first, 1.81 for the second.

First: FPKSEQVYLHFLAVVTEDGPEPKD [S13A]
Second: FPKSEQVYLHFLGVVTEDGPEPKD [S13G]
The protein stability index of the first is higher: 1.89 for the first, 1.5 for the second.

First: FPKSEQVYLHFLCVVTEDGPEPKD [S13C]
Second: FPKSEQVYLHFLYVVTEDGPEPKD [S13Y]
The protein stability index of the first is lower: 2.31 for the first, 3.15 for the second.

Compared with FPKSEQVYLHFLTVVTEDGPEPKD [S13T], FPKSEQVYLHFLMVVTEDGPEPKD [S13M] is higher in protein stability index: 1.78 for the first, 1.96 for the second.

First: FPKSEQVYLHFLNVVTEDGPEPKD [S13N]
Second: FPKSEQVYLHFLQVVTEDGPEPKD [S13Q]
The protein stability index of the first is higher: 2.46 for the first, 1.53 for the second.
